# Measured values: the nanobody polyreactivity screen of Harvey et al. (2022)
# Assay: yeast display, Sf9 membrane polyspecificity reagent, FACS + sequencing; frameworks hold sequencing errors
# Method in brief: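 Genes from sorted yeast were amplified by colony PCR, read by MiSeq 2 × 250 sequencing and filtered on CDR length. These cells carried a synthetic nanobody library in Saccharomyces cerevisiae BJ5465 and were sorted by FACS into low and high (top ~1%) gates on anti-HA and streptavidin fluorescence. Polyreactivity is labelled according to the gate of origin.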
row,Sequence,polyreactivity (PSR sort gate)
1,QVQLVESGGGLVQAGGSLRLSCAASGSIFAGNVMGWYRQAPGKESELVAAISRRGGRTYYADSVKGRFTISRDNAKNTVYLQMNSLKPEDTAVYYCAARRDPVLGKSDYWGQGTQVTVSS,high polyreactivity
2,QVQLVESGGGLVQAGGSLRLSCAASGSIFAHYAMGGYRQAPGKERELVAAITRGGGTYYADSVKGRFTLSRDNAKNTVYLQMNSVKPEDTAVYYCARIYYVSIYRYDYWGQGTQVTVSS,high polyreactivity
3,QVQLVESGGGLVQAGGSLRLSCAASGSIFAINAMGWYRQAPGKERELVAAIRRRDGNTYYADSVKGRFTISRDNAKNSVYLQMNSLKPEDTAVYYCNTYSRRTSVIAYRYNYWGQGTQVTVSS,high polyreactivity
4,QVQLVESGGGLVQAGGSLRLSCAASGSIFAKNAMGWYRQAPGKERELVAAISRGGNSYYADSVKGRFTISRDNAKNPVYFPMNSLTPEDTAVYYCAADYYWYVWEYPTYWYEYWGQGTQVTVSS,high polyreactivity
5,QVQLVESGGGLVQAGGSLRLSCAASGSIFAKYAMGLYRQAPGKERELVAGITRGGSTYYADSVKGRFTISRDNAKNTVYLQMNSLKQEDTAVYYCAAKRHTSLYVYYYWGLGTQVTVSS,high polyreactivity
6,QVQLVESGGGLVQAGGSLRLSCAASGSIFAKYAMGWYRQAPGKERELVAAITGSGGSTYYADSVKGRFTISRDNAKNTVYLQMNSVKPEDTAVYYCAKRRPRYTYNYWGQGTQVTVSS,high polyreactivity
7,QVQLVESGGGLVQAGGSLRLSCAASGSIFALYAIGWYRQAPGKEREFVAAISYNGGSTYYADSVKGRFTISRDNAKNTVYLQMNSLKPEDTAVYYCNDVYYDSGVVGYYYWGQGTQVTVSS,high polyreactivity
8,QVQLVESGGGLVQAGGSLRLSCAASGSIFALYAMGWYRQAPGKERELVAAISYRGGRTYYADSVKGRFTISRDNAKNTVYLQMNSLKPEDTAVYYCKAAYGTSYLYNSEFYAAFTYDYWGQGTQVTVSS,low polyreactivity
9,QVQLVESGGGLVQAGGSLRLSCAASGSIFAPNAMGWYRQAPGKERELVAAITLSGGSRYYADSVKGRFTISREIAMNNVYLQMNSLKPEDTAVYYCNADLLPADAPLWVTGGDYWGQGTQVTVSS,low polyreactivity
10,QVQLVESGGGLVQAGGSLRLSCAASGSIFAPYTMGWYRQAPGKERELVAAISSSGTSTYYADSVKGRFTISRDNAKNTVYLQMNSLKPEDTAVYYCAADWYYHYGYWGQGTQVTVSS,high polyreactivity
11,QVQLVESGGGLVQAGGSLRLSCAASGSIFARYAMGWYRQAPGKERELVAAINSTVSTNYADSVKGRFTISRDNAKNTVYLQMNSLKPEDTAVYYCAVDIVRGGRDSWGQGTLVTVSS,low polyreactivity
12,QVQLVESGGGLVQAGGSLRLSCAASGSIFARYAMGWYRQAPGKERELVAAITGRGGSTYYADSVKGRFTISRDNAKNTVYLHMNSLKPEDTAVYYCAPKDVRRTRGGSGDYWGQGTQVTVSS,high polyreactivity
13,QVQLVESGGGLVQAGGSLRLSCAASGSIFARYAMGWYRQAPGKERELVAAITRSGVSTYYADSVKGRFTISRDNAKNTVYLQMNSLKPEDTAVYNCNAYYPIRSTPYGYYYWGQGTQVTVSS,high polyreactivity
14,QVQLVESGGGLVQAGGSLRLSCAASGSIFASNAMGWYRQAPGKERELVAAITSSGRTKYADSVKGRFTISRDNAKNTVYFQMNSLKPEDTAVYYCAAVYYTYFGRYDYWGQGTQVTVSS,high polyreactivity
15,QVQLVESGGGLVQAGGSLRLSCAASGSIFASNAMGWYRQAPGTERELVAAIDTSGGSTYYADSVKGRFTISRDNAKNTVYLQMNSLKPEDTAVYYCNTDWRDEYYPRYRASKFDYWGQGTQVTVSS,low polyreactivity
16,QVQLVESGGGLVQAGGSLRLSCAASGSIFASYAMGRYRQAPGKERELVAAISRSGGSTYYADSVKGRFTISRDNAKNTVYLQMNSLKPEDTAVYYCATGKIREDDYWGQGTQVTVSS,high polyreactivity
17,QVQLVESGGGLVQAGGSLRLSCAASGSIFASYAMGWYRQAPGKERELVAAISWNGGSTYYADSVKGRFTISRDNAKNTVYFQMNSLKPEDTAVYYCAAVNRKSQLYGYWGQGTQVTVSS,high polyreactivity
18,QVQLVESGGGLVQAGGSLRLSCAASGSIFASYAMGWYRQAPGKERELVAAITYSGSRTYYADSVKGRFTISRDTAKNTVYLQMNSLKPEDTAVYYCNADYYWYPYEDDYWGQGTQETVSS,low polyreactivity
19,QVQLVESGGGLVQAGGSLRLSCAASGSIFASYVMGWYRQAPGKERELVAAISSSGASTYYADSVKGRFTISRDNAKNTVSLQMNSLKPEDTAVSYCATPYYRSYLGDYWGQGTQVTVSS,high polyreactivity
20,QVQLVESGGGLVQAGGSLRLSCAASGSIFATNAMGWYRQAPGKERELVASISSGGGSTYYADSVKGRFTISRDNAKNTVYLQMNSLKPEDTAVYYCARRIGHGSRPYWLETWRYPYDYWGQGTQVTVSS,low polyreactivity

row,Sequence,polyreactivity (PSR sort gate)
1,QVQLVESGGGLVQAGGSLRLSCAASGSIFATNSMGWYRQAPGKERELVAAISRSGASTYYADSVKGRFTISRDNAKNTVYLQMNSLKPEDTAVYYCNKVLYRDAYHSYCFDYWGQGTQVTVSS,high polyreactivity
2,QVQLVESGGGLVQAGGSLRLSCAASGSIFATYAMGWYRQAPGKERELVAAISSSGSRTYYADSVKGRFTISRDNAKNTVYLQMNSLKPEDTAVYYCAKAYLSPYQYDYWGQGTQVTVSS,high polyreactivity
3,QVQLVESGGGLVQAGGSLRLSCAASGSIFATYAMGWYRQAPGKERELVAAITSSDGSTNYADSVKGRFTISRDNAKNTVYLQMNSLKPEDTAVYYCATDAPDRTDSDSGFDAGYDYWGQGTQVTLSS,low polyreactivity
4,QVQLVESGGGLVQAGGSLRLSCAASGSIFAVYAMGWYRQAPGKERELVAAISVSGGRTYYADSVKGRFTISRDNAKNTVYLQMNSLKPEDTAVYYCAARSLSYYRSRAAQYGWGYYYWGQGTQVTVSS,high polyreactivity
5,QVQLVESGGGLVQAGGSLRLSCAASGSIFAVYAMGWYRQAPGKERELVAASSTDYADSVKGRFTISRDYAKNTVYLQMNSLKPEDTAVYYCANVGFGIPGGFYYWGQGTKVTVSS,low polyreactivity
6,QVQLVESGGGLVQAGGSLRLSCAASGSIFAVYAMGWYRQAPGKERELVATITGIDTGTYYADSVKGRFTISRDNAKNTVYLQMNSLKPEDTAVYYCAAVWRYRHLRFYYWGQGTQVTVSS,high polyreactivity
7,QVQLVESGGGLVQAGGSLRLSCAASGSIFAVYTMGWYRQAPGKEREVVAAITKSGGRTYYADSVKGRFTISRDNAKNTVYLQMNSLKPEDTAVYYCARRRTIPYTLVDYDSWGQGTQVTVSS,low polyreactivity
8,QVQLVESGGGLVQAGGSLRLSCAASGSIFAWYAMGWYRPAPGKEWELVAVITRGGSTNYADSLKGRFTISRDNAKNTVYLQMNSLKPEDTAVKYCAAGSYYSWYPFDYWGQGTQVTVSS,low polyreactivity
9,QVQLVESGGGLVQAGGSLRLSCAASGSIFAWYAMGWYRQAPGKERELVAAISYRGGRTYYADSVKGRFTISRDNAKNTVYLQMNSLKPEDTAVYYCATDANRGYPSYDYWGQGTQVTVSS,high polyreactivity
10,QVQLVESGGGLVQAGGSLRLSCAASGSIFAYAMGWYRKAPGKEREFVAAISGGSTYYADSVKGRFTISRDNAKNTVYLQMNSLKPEDTAVYYCAADLDDERYYWGQGTQVTVSS,low polyreactivity
11,QVQLVESGGGLVQAGGSLRLSCAASGSIFAYKAKGWYRQAPGKEREFVAVITRSDDSTYAYSVKGRFTISRDNAKNPFYLQMNSLKAEDTAVYYCARRWSYLRPSLEYDSWGQGTQVTVSS,low polyreactivity
12,QVQLVESGGGLVQAGGSLRLSCAASGSIFAYNAKGWYRPAPGKEREFVAVITRSDDSTYADSVKWRFTISRDNAKNTVYLQMNSLKPEDTSVYYCAAQPFVIDCGYRGDYWGQATQVTVSS,low polyreactivity
13,QVQLVESGGGLVQAGGSLRLSCAASGSIFAYNAMGWYRQAPGKDREFVAAISQSGGRTYYAHSVKGRFTISRDNAKNTVYLQMNILKPEDTAVYYCATDGIRLTRHRDYDYWGQGTQVTVSS,low polyreactivity
14,QVQLVESGGGLVQAGGSLRLSCAASGSIFAYNAMGWYRQAPGKERELVATINWIGGRTYYADSVKGRFTISRDNAKNTVYLQMNSLKPEDTAVYYCAKERWYLGVSNGHVLVDYDHWGQGTQVTVSS,low polyreactivity
15,QVQLVESGGGLVQAGGSLRLSCAASGSIFAYYAMGWYRQAPGKEREIVAAISKRGGRTYYADSVKGRFTISRDNAKNTVYLQMNSLKPEDTAVYYCATVGVRTNLNRYGYWGQGTQVTVSS,high polyreactivity
16,QVQLVESGGGLVQAGGSLRLSCAASGSIFAYYAMGWYRQAPGKERELVAAIDSRGGSTYYADSVKGRFTISRDNAKNTVYLQMNSLKPEDTAVYYCAARLRYPRRGQGDNYWGQGTQVTVSS,low polyreactivity
17,QVQLVESGGGLVQAGGSLRLSCAASGSIFAYYAMGWYRQAPGKERELVAAISSGGGTYYADSVKGRFTISRDNAKNTVYLQMNSLKPEDTAVYYCARRYRAHYQYLYDYWGQGTQVSVSS,low polyreactivity
18,QVQLVESGGGLVQAGGSLRLSCAASGSIFAYYAMGWYRQAPGKERELVASISSVGTTKYADSVKGRFTISRDNAKNTVYLQMNSLKPEDTAVYYWATDGYSPAAFDYWGQGTQVTVSS,low polyreactivity
19,QVQLVESGGGLVQAGGSLRLSCAASGSIFAYYAMGWYRQAPGKESELVADITSSGGITYYADSVKGRFTISRDNAKNTVYLQMISLKPEDTAVYYCNADSWAIGGGSYPYDYWGHGTQVTVSS,low polyreactivity
20,QVQLVESGGGLVQAGGSLRLSCAASGSIFAYYTMGWYRQAAGNERELVAVINASGGGTYYADSVKGRFTISRDNAKNTVYLQMNSLKPEDTAVYYCAATYSPFDFYYWGQGTQVTVSS,low polyreactivity
